From patent publication US20250277025A1 (SHIJIAZHUANG YILING PHARMACEUTICAL, published 2025)
Residue numbers refer to the chain shown, from its start.

Experiments:
[1] = biological target: human CLDN18.2 expressed on cells (human); assay: cell-based or functional assay
[2] = biological target: T1, human CLDN18.2 expressed on cells (human); assay: flow cytometry (geometric mean, Alexa Fluor 647 anti-human IgG Fc) on CLDN18.2-expressing 293T cells
T1 construct: also called huCLDN18.2

[3] = biological target: T1, human CLDN18.2 expressed on cells; assay: cell-based or functional assay; remark: listed apart in the source
[4] = biological target: T1, human CLDN18.2 expressed on cells; assay: cell-based or functional assay; remark: listed apart in the source
[5] = biological target: T1, human CLDN18.2 expressed on cells; assay: cell-based or functional assay; remark: listed apart in the source
[6] = biological target: T1, human CLDN18.2 expressed on cells; assay: flow cytometry on CHO cells expressing huCLDN18.2, GAH-FITC secondary, percent FITC-positive cells
Protocol: CHO cells expressing huCLDN18.2 were used to assess the binding of the antibodies. Cells were seeded at 5×10⁵ cells per 100 μl into a well of a 96-well plate for each sample. Then, 100 μl of each serially diluted antibody was added to the cells, each dilution started at 40 μg/ml and was diluted 5-fold. Therefore, the final concentration of each antibody starts at 20 μg/ml followed by a 5-fold serial dilution. After 1 hour, the cells were washed twice and 100 μl of GAH-FITC (1:200 dilution) was added to each well. After 30 minutes, the cells were washed twice and resuspended in 120 μl of FACS buffer. The cells were analyzed via flow cytometry.
Unstained cells were used as a reference to set up overall target cell gating and to establish the FITC-negative populations, allowing us to establish the FITC-positive cell gate for each cell line. Additionally, the mean fluorescence intensity (MFI) of the entire population of cells was calculated to secondarily validate the FITC-positive results. The ratio of the gated positive cell number to the total live cell number is taken as the percentage of positive cells.

B1: IMAB362 (Ganymed) (antibody, V domains shown)
VH: QVQLQQPGAELVRPGASVKLSCKASGYTFTSYWINWVKQRPGQGLEWIGNIYPSDSYTNYNQKFKDKATLTVDKSSSTAYMQLSSPTSEDSAVYYCTRSWRGNSFDYWGQGTTLTVSS
VL: DIVMTQSPSSLTVTAGEKVTMSCKSSQSLLNSGNQKNYLTWYQQKPGQPPKLLIYWASTRESGVPDRFTGSGSGTDFTLTISSVQAEDLAVYYCQNDYSYPFTFGSGTKLEIKR
With B1 the “CDC on CT26 CLDN18.2 cells, LDH: EC50 (run A)” value [1] was roughly 11.5 nM, the “CDC on CT26 CLDN18.2 cells, LDH: EC50 (run B)” value [1] was roughly 10.7 nM and the “CDC on CT26 CLDN18.2 cells, LDH: EC50 (run C)” value [1] was roughly 11.9 nM. The “EC50 (read off the curve)” value [2] was roughly 800 ng/mL, the “ADCC (PBMC) on NCI-N87 CLDN18.2 cells, LDH: EC50 (run A)” value [3] was 0.057 nM and the “ADCC (PBMC) on NCI-N87 CLDN18.2 cells, LDH: EC50 (run B)” value [3] was 0.082 nM. The “ADCC (PBMC) on NCI-N87 CLDN18.2 cells, LDH: EC50 (run C)” value [3] was 0.1 nM, the “ADCC (PBMC) on KATOIII CLDN18.2 cells, LDH: EC50 (run A)” value [4] was 0.12 nM and the “ADCC (PBMC) on KATOIII CLDN18.2 cells, LDH: EC50 (run B)” value [4] was 0.22 nM. For the same binder, the “ADCC (PBMC) on KATOIII CLDN18.2 cells, LDH: EC50 (run C)” value [4] was 0.27 nM, the “CDC on KATOIII CLDN18.2 cells, LDH: EC50 (run A)” value [5] was roughly 38.1 nM and the “CDC on KATOIII CLDN18.2 cells, LDH: EC50 (run B)” value [5] was roughly 22.7 nM. The “CDC on KATOIII CLDN18.2 cells, LDH: EC50 (run C)” value [5] was roughly 27.5 nM.

B2: YL-G1-19-02 (antibody, human IgG1, kappa)
heavy: not shown
light: DIVMTQSPSSLTVTAGEKVTMSCKSSQSLLNSGNQKNYLTWYQQRPGQPPKLLIYWASTRESGVPVRFTGSGSGTDFTLTISSVQAEDLAVYYCQNAYIYPLTFGTGTKLELKRTVAAPSVFIFPPSDEQLKSGTASVVCLLNNFYPREAKVQWKVDNALQSGNSQESVTEQDSKDSTYSLSSTLTLSKADYEKHKVYACEVTHQGLSSPVTKSFNRGEC
In the case of B2, the “ADCC (PBMC) on KATOIII CLDN18.2 cells, LDH: max (% cytotoxity)” value [4] is reported as 19.9%.

B3: YL-G2-D (antibody, human IgG1, kappa)
heavy: QLQQSGPELEKPGASVKISCKASGYSFTGYKMNWVKQSNGESLEWIGNIDPYYGDTTYTQKFKGKATFTVDTSSSTAYMQLKSLTSEDSAVYFCARYNRGNTMDYWGQGTSVTVSSASTKGPSVFPLAPSSKSTSGGTAALGCLVKDYFPEPVTVSWNSGALTSGVHTFPAVLQSSGLYSLSSVVTVPSSSLGTQTYICNVNHKPSNTKVDKRVEPKSCDKTHTCPPCPAPELVGGPSVFLLPPKPKDTLMISRTPEVTCVVVDVSHEDPEVKFNWYVDGVEVHNAKTKPPEEQYNSTLRVVSVLTVLHQDWLNGKEYKCKVSNKALPAPIEKTISKAKGQPREPQVYTLPPSREEMTKNQVSLTCLVKGFYPSDIAVEWESNGQPENNYKTTPLVLDSDGSFFLYSKLTVDKSRWQQGNVFSCSVMHEALHNHYTQKSLSLSPGK
light: B2 light with M21L, T75A, Y93F, I99F, K113R
notes: Fc-engineered version of YL-G1-19-04 without the first two VH residues; also called Fc-engineered chimeric antibody
In the case of B3, the “EC50 (read off the curve)” value [6] is reported as roughly 0.3 ng/mL.

B4: YL-G2-B (antibody, human IgG1, kappa)
heavy: EVQLQQSGPELEKPGASVKISCKASGYSFTGYKMNWVKQSNGKSLEWIGNIDPYYGGTTYNQKFKGKATLTVDKSSSTAYMQLKSLTSEDSAVYYCARYGKGNTMDYWGQGTSVTVSSASTKGPSVFPLAPSSKSTSGGTAALGCLVKDYFPEPVTVSWNSGALTSGVHTFPAVLQSSGLYSLSSVVTVPSSSLGTQTYICNVNHKPSNTKVDKRVEPKSCDKTHTCPPCPAPELVGGPSVFLLPPKPKDTLMISRTPEVTCVVVDVSHEDPEVKFNWYVDGVEVHNAKTKPPEEQYNSTLRVVSVLTVLHQDWLNGKEYKCKVSNKALPAPIEKTISKAKGQPREPQVYTLPPSREEMTKNQVSLTCLVKGFYPSDIAVEWESNGQPENNYKTTPLVLDSDGSFFLYSKLTVDKSRWQQGNVFSCSVMHEALHNHYTQKSLSLSPGK
light: B2 light
notes: also called YL-G2-B batch 1; YL-G2-B batch 2
With B4 the “EC50 (read off the curve)” value [6] was roughly 0.6 ng/mL.

B5: YL-G2-C (antibody, human IgG1, kappa)
heavy: QIQLVQSGPELRKPGETVKISCKASGFPFTTDGMSWVKQAPGKGLKWMGWINTYSGVPTYADDFKGRVAFSLETSASTAYLQIKNLKNEDTATYFCARFRRGNALDNWGQGTSVTVSSASTKGPSVFPLAPSSKSTSGGTAALGCLVKDYFPEPVTVSWNSGALTSGVHTFPAVLQSSGLYSLSSVVTVPSSSLGTQTYICNVNHKPSNTKVDKRVEPKSCDKTHTCPPCPAPELVGGPSVFLLPPKPKDTLMISRTPEVTCVVVDVSHEDPEVKFNWYVDGVEVHNAKTKPPEEQYNSTLRVVSVLTVLHQDWLNGKEYKCKVSNKALPAPIEKTISKAKGQPREPQVYTLPPSREEMTKNQVSLTCLVKGFYPSDIAVEWESNGQPENNYKTTPLVLDSDGSFFLYSKLTVDKSRWQQGNVFSCSVMHEALHNHYTQKSLSLSPGK
light: B2 light with R45K, V66D, V91I, A97N, I99F, T106A, K109R
notes: Fc-engineered version of YL-G1-19-03; also called Fc-engineered chimeric antibody
With B5 the “EC50 (read off the curve)” value [6] was roughly 0.6 ng/mL.
